Experimental data as given in IntAct's records for PubMed 16469698.

Biological target: mfd_ecoli mfd (UniProt P30958)

effect of a mutation on the interaction: decreasing interaction
Substance: DNA-directed RNA polymerase subunit beta (Escherichia coli (strain K12)) (from UniProt P0A8V2) E119A
